Here are results for 2 molecules from publication PMC4062475, “Cloning, Expression and Characterization of UDP-N-Acetylglucosamine Enolpyruvyl Transferase (MurA) from Wolbachia Endosymbiont of Human Lymphatic Filarial Parasite Brugia malayi” (PLoS ONE, 2014).

One data set deals with T1, wBm-MurA (Wolbachia endosymbiont of Brugia malayi, UniProt Q5GRP6).
T1 construct: full-length 1278 bp ORF in pET28a (BamHI/XhoI), His6-tagged, expressed in E. coli Rosetta(DE3)pLysS, Ni-NTA purified, ~51 kDa, tag removal not mentioned
T1 sequence (Q5GRP6 1-425): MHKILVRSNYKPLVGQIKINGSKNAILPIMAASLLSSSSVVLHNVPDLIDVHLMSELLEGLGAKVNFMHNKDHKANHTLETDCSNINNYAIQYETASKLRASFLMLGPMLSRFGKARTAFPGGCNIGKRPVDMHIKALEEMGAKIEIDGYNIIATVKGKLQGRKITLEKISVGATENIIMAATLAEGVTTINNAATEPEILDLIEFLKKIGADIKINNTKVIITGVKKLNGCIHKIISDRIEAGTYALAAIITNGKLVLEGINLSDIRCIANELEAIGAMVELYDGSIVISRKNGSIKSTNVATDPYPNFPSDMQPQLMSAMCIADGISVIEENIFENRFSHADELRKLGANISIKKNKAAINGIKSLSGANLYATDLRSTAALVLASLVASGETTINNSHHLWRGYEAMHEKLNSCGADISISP
The experiment in a line: malachite green phosphate release assay, […] min pre-incubation, […] h reaction. The class given is biochemical. Particulars: 5 mM PEP, 0.6 mM UDPAG, pH 7.5, 37°C; competitive with PEP; covalent (as stated by authors).

Substrate in data set [1]: CC(=O)N[C@H]1[C@@H](OP(=O)(O)OP(=O)(O)OC[C@H]2O[C@@H](n3ccc(=O)[nH]c3=O)[C@H](O)[C@@H]2O)O[C@H](CO)[C@@H](O)[C@@H]1O
The experiment in a line: malachite green phosphate release assay, Michaelis-Menten non-linear fit. It counts as biochemical, Wolbachia endosymbiont of Brugia malayi. Particulars: 1 mM PEP, 50 mM Tris-HCl pH 7.5, 10 mM KCl, 1 mM DTT, 10% glycerol, 37°C.

Substrate in data set [2]: C=C(OP(=O)(O)O)C(=O)O
The data set is described as above. It counts as biochemical, Wolbachia endosymbiont of Brugia malayi. Particulars: 5 mM UDPAG, 50 mM Tris-HCl pH 7.5, 10 mM KCl, 1 mM DTT, 10% glycerol, 37°C.

By Km is commonly meant the substrate concentration at which the rate is half of its maximum.

Take `C[C@@H]1O[C@@H]1P(=O)(O)O` [fosfomycin]: the “fold decrease of activity at 50 mM” value on wBm-MurA is on record as ~ 2 fold.

B1: wBm-MurA (Wolbachia endosymbiont strain TRS of Brugia malayi) (protein)
chain: T1 sequence (Q5GRP6 1-425)
notes: full-length 1278 bp ORF in pET28a (BamHI/XhoI), His6-tagged, expressed in E. coli Rosetta(DE3)pLysS, Ni-NTA purified, ~51 kDa, tag removal not mentioned
For B1, the Michaelis-Menten constant (Km) in data set [1] amounted to 31.49 µM; in data set [2] it was 9.198 µM.
